T1: GST-fused full length Ppz1 (S. cerevisiae, UniProt P26570 1-692)
T1 construct: Ser/Thr protein phosphatase Ppz1, S. cerevisiae, full length; also called GST-Ppz1; source: E. coli BL21 (DE3) RIL, purified on glutathione-agarose
T1 sequence (looked up): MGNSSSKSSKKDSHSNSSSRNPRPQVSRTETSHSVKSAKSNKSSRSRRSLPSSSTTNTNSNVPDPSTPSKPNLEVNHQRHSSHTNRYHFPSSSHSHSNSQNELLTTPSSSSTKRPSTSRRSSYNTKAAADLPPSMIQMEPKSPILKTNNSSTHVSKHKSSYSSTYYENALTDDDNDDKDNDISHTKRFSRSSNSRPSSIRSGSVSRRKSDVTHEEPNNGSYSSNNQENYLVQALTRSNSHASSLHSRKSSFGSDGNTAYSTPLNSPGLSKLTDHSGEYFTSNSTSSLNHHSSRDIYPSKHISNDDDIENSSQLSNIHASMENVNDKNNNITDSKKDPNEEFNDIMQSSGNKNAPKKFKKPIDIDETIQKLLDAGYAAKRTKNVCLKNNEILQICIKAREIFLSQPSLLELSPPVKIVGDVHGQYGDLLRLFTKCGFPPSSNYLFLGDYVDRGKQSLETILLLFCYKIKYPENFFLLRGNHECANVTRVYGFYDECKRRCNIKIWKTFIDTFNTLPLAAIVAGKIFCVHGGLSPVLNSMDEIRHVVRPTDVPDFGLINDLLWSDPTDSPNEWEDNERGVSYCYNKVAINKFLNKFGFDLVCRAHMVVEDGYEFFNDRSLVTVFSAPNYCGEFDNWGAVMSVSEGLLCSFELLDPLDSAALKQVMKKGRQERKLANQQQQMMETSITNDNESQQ


Assays:
[1] = molecular target: the molecule itself; test: cross-linking; purified GST-free proteins (1 or 2 ug) treated with 0.01% glutaraldehyde, SDS-PAGE, Coomassie staining
[2] = molecular target: T1, GST-fused full length Ppz1; test: pull-down; 4 ug GST-Ppz1 or GST-Ppz1-Cter on glutathione-agarose beads, 600 ug protein extract of IM021 yeast expressing HA-tagged ScHal3 versions, anti-HA immunoblot; signal related to Ponceau-stained bait, native ScHal3 as the unit; settings: one partner purified

Row | Binder | stoichiometry N [1] | interaction relative to native ScHal3 [2]
1 | Arabidopsis thaliana Hal3 (AtHal3a), native, recombinant, GST removed (enzyme, UniProt Q9SWE5 1-209, looked up, AtHal3a, Arabidopsis thaliana, wild type ORF amplified from the AtHal3a cDNA and cloned into pGEX-6P-1; Flavoprotein (FMN); Theoretical mass of the trimer ~69 kDa; also called native AtHal3; source: E. coli BL21 (DE3) RIL, GST fusion purified on glutathione-agarose, GST cleaved with PreScission protease) MENGKRDRQDMEVNTTPRKPRVLLAASGSVAAIKFGNLCHCFTEWAEVRAVVTKSSLHFLDKLSLPQEVTLYTDEDEWSSWNKIGDPVLHIELRRWADVLVIAPLSANTLGKIAGGLCDNLLTCIIRAWDYTKPLFVAPAMNTLMWNNPFTERHLLSLDELGITLIPPIKKRLACGDYGNGAMAEPSLIYSTVRLFWESQAHQQTGGTS | 3 | –
2 | AtHal3 G115N L117E, recombinant, GST removed (enzyme, Arabidopsis thaliana, UniProt Q9SWE5 1-209, looked up, AtHal3a, Arabidopsis thaliana, ORF in pGEX-6P-1 with G115N and L117E; source: E. coli BL21 (DE3) RIL, GST fusion purified on glutathione-agarose, GST cleaved with PreScission protease) MENGKRDRQDMEVNTTPRKPRVLLAASGSVAAIKFGNLCHCFTEWAEVRAVVTKSSLHFLDKLSLPQEVTLYTDEDEWSSWNKIGDPVLHIELRRWADVLVIAPLSANTLGKIANGECDNLLTCIIRAWDYTKPLFVAPAMNTLMWNNPFTERHLLSLDELGITLIPPIKKRLACGDYGNGAMAEPSLIYSTVRLFWESQAHQQTGGTS | 3 | –
3 | AtHal3 L117E, recombinant, GST removed (enzyme, Arabidopsis thaliana, UniProt Q9SWE5 1-209, looked up, AtHal3a, Arabidopsis thaliana, ORF in pGEX-6P-1 with L117E; source: E. coli BL21 (DE3) RIL, GST fusion purified on glutathione-agarose, GST cleaved with PreScission protease) MENGKRDRQDMEVNTTPRKPRVLLAASGSVAAIKFGNLCHCFTEWAEVRAVVTKSSLHFLDKLSLPQEVTLYTDEDEWSSWNKIGDPVLHIELRRWADVLVIAPLSANTLGKIAGGECDNLLTCIIRAWDYTKPLFVAPAMNTLMWNNPFTERHLLSLDELGITLIPPIKKRLACGDYGNGAMAEPSLIYSTVRLFWESQAHQQTGGTS | 3 | –
4 | HA-tagged ScHal3 L403N L405E expressed in S. cerevisiae from pWS93 (natural protein, UniProt P36024 1-562, looked up, Hal3 (Sis2), S. cerevisiae, with L403N and L405E; insert released from the pGEX construct and cloned into pWS93; also called the double mutated variant; source: S. cerevisiae IM021 (ppz1 hal3), expressed from pWS93, in protein extract) MTAVASTSGKQDADHNQSIECPRFSRGQKEILLDHEDAKGKDSIINSPVSGRQSISPTLSNATTTTTKSIMNATGTSGAVVSNTPEPGLKRVPAVTFSDLKQQQKQDSLTQLKNDSERTKSPNSNPAPVSNSIPGNHAVIPNHTNTSRTTQLSGSPLVNEMKDYDPKKKDSALKIVDTMKPDKIMATSTPISRENNKVTAKAPTSITLRKEDAQDQANNVSGQINVRSTPEETPVKQSVIPSIIPKRENSKNLDPRLPQDDGKLHVLFGATGSLSVFKIKPMIKKLEEIYGRDRISIQVILTQSATQFFEQRYTKKIIKSSEKLNKMSQYESTPATPVTPTPGQCNMAQVVELPPHIQLWTDQDEWDAWKQRTDPVLHIELRRWADILVVAPLTANTLSKIANGECDNLLTSVIRAWNPSYPILLAPSMVSSTFNSMMTKKQLQTIKEEMSWVTVFKPSEKVMDINGDIGLGGMMDWNEIVNKIVMKLGGYPKNNEEEDDDEDEEEDDDEEEDTEDKNENNNDDDDDDDDDDDDDDDDDDDDDDDDEDEDEAETPGIIDKHQ | – | ~50%
5 | S. cerevisiae Hal3 (ScHal3), native, recombinant, GST removed (natural protein, UniProt P36024 1-562, looked up, the methods speak of 'each full-length recombinant protein' and the predicted homotrimer is ~190 kDa; also called native ScHal3; WT; source: E. coli BL21 (DE3) RIL, GST fusion purified on glutathione-agarose, GST cleaved with PreScission protease) MTAVASTSGKQDADHNQSIECPRFSRGQKEILLDHEDAKGKDSIINSPVSGRQSISPTLSNATTTTTKSIMNATGTSGAVVSNTPEPGLKRVPAVTFSDLKQQQKQDSLTQLKNDSERTKSPNSNPAPVSNSIPGNHAVIPNHTNTSRTTQLSGSPLVNEMKDYDPKKKDSALKIVDTMKPDKIMATSTPISRENNKVTAKAPTSITLRKEDAQDQANNVSGQINVRSTPEETPVKQSVIPSIIPKRENSKNLDPRLPQDDGKLHVLFGATGSLSVFKIKPMIKKLEEIYGRDRISIQVILTQSATQFFEQRYTKKIIKSSEKLNKMSQYESTPATPVTPTPGQCNMAQVVELPPHIQLWTDQDEWDAWKQRTDPVLHIELRRWADILVVAPLTANTLSKIALGLCDNLLTSVIRAWNPSYPILLAPSMVSSTFNSMMTKKQLQTIKEEMSWVTVFKPSEKVMDINGDIGLGGMMDWNEIVNKIVMKLGGYPKNNEEEDDDEDEEEDDDEEEDTEDKNENNNDDDDDDDDDDDDDDDDDDDDDDDDEDEDEAETPGIIDKHQ | 3 | –
6 | ScHal3 L403N, recombinant, GST removed (natural protein, S. cerevisiae, UniProt P36024 1-562, looked up, Hal3 (Sis2), S. cerevisiae, in pGEX-6P-1 with L403N; also called the L403 variant; source: E. coli BL21 (DE3) RIL, GST fusion purified on glutathione-agarose, GST cleaved with PreScission protease) MTAVASTSGKQDADHNQSIECPRFSRGQKEILLDHEDAKGKDSIINSPVSGRQSISPTLSNATTTTTKSIMNATGTSGAVVSNTPEPGLKRVPAVTFSDLKQQQKQDSLTQLKNDSERTKSPNSNPAPVSNSIPGNHAVIPNHTNTSRTTQLSGSPLVNEMKDYDPKKKDSALKIVDTMKPDKIMATSTPISRENNKVTAKAPTSITLRKEDAQDQANNVSGQINVRSTPEETPVKQSVIPSIIPKRENSKNLDPRLPQDDGKLHVLFGATGSLSVFKIKPMIKKLEEIYGRDRISIQVILTQSATQFFEQRYTKKIIKSSEKLNKMSQYESTPATPVTPTPGQCNMAQVVELPPHIQLWTDQDEWDAWKQRTDPVLHIELRRWADILVVAPLTANTLSKIANGLCDNLLTSVIRAWNPSYPILLAPSMVSSTFNSMMTKKQLQTIKEEMSWVTVFKPSEKVMDINGDIGLGGMMDWNEIVNKIVMKLGGYPKNNEEEDDDEDEEEDDDEEEDTEDKNENNNDDDDDDDDDDDDDDDDDDDDDDDDEDEDEAETPGIIDKHQ | 3 | –
7 | HA-tagged ScHal3 L405E expressed in S. cerevisiae from pWS93 (natural protein, UniProt P36024 1-562, looked up, Hal3 (Sis2), S. cerevisiae, with L405E; insert released from the pGEX construct and cloned into pWS93; source: S. cerevisiae IM021 (ppz1 hal3), expressed from pWS93, in protein extract) MTAVASTSGKQDADHNQSIECPRFSRGQKEILLDHEDAKGKDSIINSPVSGRQSISPTLSNATTTTTKSIMNATGTSGAVVSNTPEPGLKRVPAVTFSDLKQQQKQDSLTQLKNDSERTKSPNSNPAPVSNSIPGNHAVIPNHTNTSRTTQLSGSPLVNEMKDYDPKKKDSALKIVDTMKPDKIMATSTPISRENNKVTAKAPTSITLRKEDAQDQANNVSGQINVRSTPEETPVKQSVIPSIIPKRENSKNLDPRLPQDDGKLHVLFGATGSLSVFKIKPMIKKLEEIYGRDRISIQVILTQSATQFFEQRYTKKIIKSSEKLNKMSQYESTPATPVTPTPGQCNMAQVVELPPHIQLWTDQDEWDAWKQRTDPVLHIELRRWADILVVAPLTANTLSKIALGECDNLLTSVIRAWNPSYPILLAPSMVSSTFNSMMTKKQLQTIKEEMSWVTVFKPSEKVMDINGDIGLGGMMDWNEIVNKIVMKLGGYPKNNEEEDDDEDEEEDDDEEEDTEDKNENNNDDDDDDDDDDDDDDDDDDDDDDDDEDEDEAETPGIIDKHQ | – | ~50%
